The values that follow come from publication PMC10063446 (Nature Immunology, 2023).

The target in assay [1] is T1, recombinant RBD protein of wild-type SARS-CoV-2 (ELISA antigen) (SARS-CoV-2 wild-type, UniProt P0DTC2).
The target of assay [2] is recombinant wild-type SARS-CoV-2 S trimer (ELISA antigen) (SARS-CoV-2 wild-type, UniProt P0DTC2).
Assay [3] deals with SARS-CoV-2 RBD immobilised on the CM5 chip (SARS-CoV-2 wild-type (assumed)). Description: SPR. The note with it: both partners purified.
Assay [4] concerns the target T1, recombinant RBD protein of wild-type …. Description: ELISA. The note with it: one partner purified. (ELISA stands for enzyme-linked immunosorbent assay.)

Positions count from the first letter of the chain named. Names and notes keep the numbering of the source. Where two headings read alike, the source gives them in different places.

B1: P5S-1B11 (antibody, V domains shown)
VH: QVQLVQSGAEVKKPGASVKLSCRASGYTFTSYFMHWVRQAPGQGLEWMGVINPGGGGTSYAQKFQGRVTMTRDTSTSTVYMELSSLRSEDTAVYYCARYYDSIDNFDYWGQGTLVTVSS
VL: DIQMTQSPSSLSASVGDRVTITCRASQGIRNDLGWYQQKPGKAPKCLIYAASSLQSGVPSRFSGSRSGTEFTLTISSLQPEDFATYYCLQHNTYPQLTFGGGTKVEIK
On to B1, for which the binding result in assay [1] and in assay [2] was “binds” throughout.

B2: P5-2B9 (antibody, V domains shown)
VH: EVQLVQSGAEVKKPGESLKISCKGSGHSFTSFWIGWVRQMPGKGLEWMGIIYPGDSETRYSPSFQGQVTISVDKSIFTAYLQWSSLKASDSAMYYCARISGKGVGWFDPWGQGTLVTVSS
VL: SYVLTQPPSVSVAPGQTARITCGGNNIGSKSVHWYQQKPGQAPVLVIYYDSDRPSGIPERFSGSNSGNTATLTISRVEAGDEADYYCQVWHSSSDHVVFGGGTKLTVL
For B2, the binding result in assay [1] and in assay [2] was “binds” in each case.

B3: P2S-1H6 (antibody, V domains shown)
VH: EVQLVESGGGLVQPGRSLRLSCAASGFTFDDYDMHWVRQAPGKGLEWVSGISWNGGIIGYADSVKGRFTISRDNAKTSLYLQMNSLKPEDTALYYCAKVAGRGDYDYYYGMDVWGQGTTVTVSS
VL: QSVLTQPPSVSGAPGQRVTISCTGSSSNIGAGYDVHWYQQLPGTAPKLLIYGNNNRPSGVPDRFSGSKSGTSASLAITGLQAEDEADYYCQSYDSSLSGSVFGGGTKLTVL
On to B3, for which the binding result in assay [1] and in assay [2] was “binds” each time.

B4: P195-2B9 (antibody, V domains shown)
VH: QVQLQESGPGLVKPSETLSLTCTVSGGSSSSHFWSWIRQPPGKGLEWIGYIYYGGNTNYNPSLKSRVTISVDTSKSQFSLKLSSVTAADTAVYYCARHHYYYDSSDFRLKAGYYFDYWGQGTLVAVSS
VL: B3 VL with Y51F, G52D, N55D, G70D, S98I, G99S, S100W, V110L
As to B4, the binding result in assay [1] and in assay [2] was “binds” throughout.

B5: P10S-1G4 (antibody, V domains shown)
VH: QVQLQESGPGLVKPSQTLSLTCTVSGDSISSGDYYWIWIRQHPGKGLEWIGYIYYSGSTYYNPSLKSRVTISVDTSKNQFSLKLSSVTAADTAVYYCARVEYCSGGSCRRHNWFDPWGQGTLVTVSS
VL: B3 VL with N54S, S100V
On to B5, for which the binding result in assay [1] and in assay [2] was “binds” each time.

B6: P195-2A1 (antibody, V domains shown)
VH: EVQLVESGGGLVQPGGSLRLSCAASGFTVSSNYMSWVRQAPGKGLEWVSVIYSGGSTYYADSVKGRFTISRDNSKNTLYLQMNSLRAEDTAVYYCARGEGGDLPFDYWGQGTLVTVSS
VL: QSALTQPASVSGSPGQSITISCTGTSSDVGGYYYVSWFQQHPGEAPKLMIFDVSKRPSGVSNRFSGSKSGNTASLTISGLQAEDEADYYCSSYTSSSTSHVLFGGGTKLTVL
For the molecule B6, the binding result in assay [1] and in assay [2] was “binds” each time.

B7: P5S-2G9 (antibody, V domains shown)
VH: QVTLRESGPALVKPTQTLTLTCTFSGFSLRTTGMCVSWIRQPPGKALEWLALIDWDGDKYYATSLETRLTISKDTSENQVVLTMTNMDPVDTATYYCVRTLRLRWLDFWGQGTLVTVSS
VL: DIQMTQSPSSLSASVGDRVTITCRASQSIGTSLNWYQQKPVKAPNLLIYGASSLQSGVPSRFSGSGSGTDFTLTISSLQPEDFATYYCQQGYTTPLTFGGGTKVEIK
In the case of B7, the binding result in assay [1] and in assay [2] was “binds” throughout.

B8: P5S-2G8 (antibody, V domains shown)
VH: QMQLVQSGAEVKKTGSSVKVSCKASGSTFTHRYLHWVRQAPGQALEWMGWITPFNGDTNYAQKFQDRVTITRDGSMSTVYMDLSSLRSEDTAMYYCAAGARWGDSYYYYGMDVWGQGTAVTVSS
VL: QSALTQPPSASGSPGQSVTISCTGTSSDVGGYNYVSWYQQHPDKAPKLMIYEVSKRPSGVPDRFSGSKSGNTASLTVSGLQAEDEADYYCSSYAGNNNLVFGTGTKVTVL
With B8, the binding result in assay [1] and in assay [2] was “binds” each time.

B9: P195-2B8 (antibody, V domains shown)
VH: EVQLVESGGGLIHPGGSLRLSCAASGFTVSSNYMTWVRQAPGKGLEWVSVIYSGGSTFYADSVKGRFTISRDNSKNTLYLQMNSLRAQDTAVYYCARDLSVYGMDVWGQGTTVTVSS
VL: DIQLTQSPSFLSASVGDRVTITCRASQGISSYLAWYQQKPGKAPKLLIYAASTLQSGVPSRFSGSGSGTEFTLTISSLQPEDFATYYCQQLNSDSFTFGPGTKVDIK
Take B9: the binding result in assay [1] and in assay [2] was “binds” throughout.

B10: P5-1H1 (full IgG1) (antibody, V domains shown)
VH: B9 VH with H13Q, F27I, A40P, S62P, K75R, Q88E, S100Q
VL: DIQLTQSPSFLSASVGDRVTITCRASQGISNFLAWYQQKPGKAPKLLIYAASTLQGGVPSTFSGSGSGTEFTLTISSLQPEDFATYYCQHLNDYPLFGGGTRVEIK
Take B10: the binding result in assay [3] and in assay [4] was “binds” in each case.

B11: P2-1G7 (antibody, V domains shown)
VH: EVQLVESGGGLIQPGGSLRLSCAASGFIVSSNYMTWVRQAPGKGLEWVSVLFSGGSTFYADSVKGRFTISRDNSKNTLYLQMNSLRAEDTAVYYCARENGGYYFDYWGQGTLVTVSS
VL: B9 VL with S31T, S93N, D94Y, S95P, F96P, T97D, P100G, D105E
Regarding B11, the binding result in assay [1] and in assay [2] was “binds” in each case.

B12: P2-1B1 (full IgG1) (antibody, V domains shown)
VH: QVQLVQSGAEVKRPGSSVKVSCKASGGTFSSYAISWVRQAPGQGPEWMGGIIPIFGTPHNAQKFQGRVTITADESTSTAYMELSSLRSEDTAMYYCSRTKGDILTGYTDYYFDSWGQGTLVTVSS
VL: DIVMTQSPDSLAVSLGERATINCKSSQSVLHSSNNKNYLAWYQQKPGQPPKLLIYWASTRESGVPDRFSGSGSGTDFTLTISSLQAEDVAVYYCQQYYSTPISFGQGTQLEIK
Take B12: the binding result in assay [3] and in assay [4] was “binds” in each case.

B13: P2-1G1 (antibody, V domains shown)
VH: EVQLVESGGGLVQPGRSLRLSCAASGFTFDDYAMHWVRQAPGKGLEWVSGMSWNSGTIGYADSVKGRFTISRDNAKNSLYLQMNSLRPEDTALYYCAKDIGGAEMATRNYGMDVWGQGTTVTVSS
VL: QSALTQPASVSGSPGQSITISCTGASSDVGGYNYVSWYQQHPGKAPKLMIYDVSERPSGVSNRFSGSKSGNTASLTISGLQAEDEADYYCSSYTSSSTLVFGGGTKLTVL
Regarding B13, the binding result in assay [1] and in assay [2] was “binds” in each case.

B14: P195-1B8 (antibody, V domains shown)
VH: QVTLRESGPALVKPTQTLTLTCTFSGFSLSTSGMCVSWIRQPPGKALEWLALIDWDDDKYYSTSLKTRLTISKDTSKNQVVLTMTNMDPVDTATYYCARSWVGGGVDVWGQGTTVTVSS
VL: not shown
On to B14, for which the binding result in assay [1] and in assay [2] was “binds” in each case.

B15: P2-1G9 (antibody, V domains shown)
VH: EVQLVESGGGLVQPGGSLRLSCAASGFTFSTYWMSWVRQAPGKGLEWVANIKQDGSDKYYVDSVKGRFTISRDNAKNSLYLQMNSLRVEDTAVYYCARDLGILWFGELPNFDPWGQGTLVTVSS
VL: DIQMTQSPSSLSASVGDRVTITCRASQGISNSLAWYQQKPGKAPKLLLYAASTLESGVPSRFSGSGSGTDYTLTISSLQPEDFATYYCQQYYSPPPRTFGQGTKVEIK
Take B15: the binding result in assay [1] and in assay [2] was “binds” each time.

B16: P2S-2E8 (antibody, V domains shown)
VH: B15 VH with T31S, D57E, V88A
VL: B15 VL with T53R, P94T
As for B16, the binding result in assay [1] and in assay [2] was “binds” throughout.

B17: P186-2A8 (antibody, V domains shown)
VH: EVQLVESGGGLVQPGRSLRLSCAASGFTFDDYAMHWVRQAPGKGLEWVSGISWNSGSISYADSVKGRFTISRDNAKNSLYLQMNSLRAEDTALYYCAKALVGGHKYYYGMDVWGQGTTVTVSS
VL: not shown
As to B17, the binding result in assay [1] and in assay [2] was “binds” in each case.

B18: P5-1C8 (full IgG1) (antibody, V domains shown)
VH: EVQLVESGGGLIQPGGSLRLSCAASEIIVSRNYMNWVRQAPGKGLEWVSVIYSGGSTFYADSVKGRFTISRDNSENTLYLQMNSLRAEDTAVYYCARGYGDYYFDYWGRGTLVTVSS
VL: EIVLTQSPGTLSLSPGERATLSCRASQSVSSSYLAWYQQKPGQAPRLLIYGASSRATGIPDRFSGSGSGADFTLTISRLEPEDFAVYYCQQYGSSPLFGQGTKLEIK
For B18, the binding result in assay [3] and in assay [4] was “binds” throughout.

B19: P5-1A7 (antibody, V domains shown)
VH: EVQLVESGGDLIQPGGSLRLSCAASGFTVSSNYMSWVRQAPGKGLEWVAVIYSGGSTYYADSVKGRFTISRDNSKNTLYLQMNSLRAEDTAVYYCARDYGDFYFDYWGQGTLVTVSS
VL: not shown
With B19, the binding result in assay [1] and in assay [2] was “binds” throughout.

B20: P186-2C12 (antibody, V domains shown)
VH: EVQLVESGGGVVRPGGSLRLSCAASGFTFDDYGMSWVRQAPGKGLEWVSGIYWNGGITGYADSLKGRFTISRDNAKNSLYLQMNSLRAEDTALYHCARDRGSGYYIFDYWGQGTLVTVSS
VL: not shown
As for B20, the binding result in assay [1] and in assay [2] was “binds” in each case.
